This is an account of results in article PMC2582393 (Developmental cell, 2008).

Substitutions are numbered along the chain they refer to.

First the molecules themselves.
T1: GST-CDC-48.3 full-length (FL), amino acids 1-724 (C. elegans, UniProt Q21222 1-724)
T1 sequence (looked up): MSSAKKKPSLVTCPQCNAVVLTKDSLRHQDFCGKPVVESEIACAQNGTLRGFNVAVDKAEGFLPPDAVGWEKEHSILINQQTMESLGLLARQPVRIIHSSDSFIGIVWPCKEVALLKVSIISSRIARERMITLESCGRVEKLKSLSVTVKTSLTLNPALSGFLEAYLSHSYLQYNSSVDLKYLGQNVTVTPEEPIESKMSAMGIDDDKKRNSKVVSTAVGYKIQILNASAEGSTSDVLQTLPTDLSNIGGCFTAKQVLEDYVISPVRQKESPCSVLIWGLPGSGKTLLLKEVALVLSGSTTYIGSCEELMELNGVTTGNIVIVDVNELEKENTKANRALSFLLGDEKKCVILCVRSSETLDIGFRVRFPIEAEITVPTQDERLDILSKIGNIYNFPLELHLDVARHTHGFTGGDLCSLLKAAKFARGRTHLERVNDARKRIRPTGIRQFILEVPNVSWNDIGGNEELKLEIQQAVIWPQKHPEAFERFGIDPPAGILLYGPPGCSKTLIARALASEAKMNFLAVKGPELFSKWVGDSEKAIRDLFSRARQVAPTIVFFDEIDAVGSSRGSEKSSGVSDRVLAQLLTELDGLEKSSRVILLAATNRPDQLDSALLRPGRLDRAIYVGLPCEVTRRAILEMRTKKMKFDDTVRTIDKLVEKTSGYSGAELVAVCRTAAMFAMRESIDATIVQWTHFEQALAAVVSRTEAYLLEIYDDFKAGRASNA

T2: GST-CDC-48.3 (N+D1), amino acids 1-441 (C. elegans, UniProt Q21222 1-441)
T2 sequence (looked up): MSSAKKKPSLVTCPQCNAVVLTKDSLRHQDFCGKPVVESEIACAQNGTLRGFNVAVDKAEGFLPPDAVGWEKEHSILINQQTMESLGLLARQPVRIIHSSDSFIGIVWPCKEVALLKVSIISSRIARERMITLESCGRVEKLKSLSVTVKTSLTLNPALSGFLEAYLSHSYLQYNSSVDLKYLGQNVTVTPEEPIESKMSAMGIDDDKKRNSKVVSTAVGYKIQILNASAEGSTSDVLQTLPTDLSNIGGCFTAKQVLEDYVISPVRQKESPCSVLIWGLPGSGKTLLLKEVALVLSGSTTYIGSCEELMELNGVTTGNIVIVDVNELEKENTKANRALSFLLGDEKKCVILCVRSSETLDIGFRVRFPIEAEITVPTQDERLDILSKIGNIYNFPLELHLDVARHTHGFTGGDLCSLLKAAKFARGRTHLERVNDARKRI

T3: GST-CDC-48.3 (N+D1) K285T (C. elegans, UniProt Q21222 1-441, K285T)
T3 sequence (looked up): T2 sequence (looked up) with K285T

B1: AIR-2 (C. elegans Aurora B kinase), recombinant, GST tag removed (enzyme, UniProt O01427 1-305, looked up)
chain: MENKPPVINLPEKETVNTPQKGGKFTINDFEIGRPLGKGKFGSVYLARTKTGHFHVAIKVLFKSQLISGGVEHQLEREIEIQSHLNHPNIIKLYTYFWDAKKIYLVLEYAPGGEMYKQLTVSKRFSEPTAAKYMYEIADALSYCHRKNVIHRDIKPENLLIGSQGELKIGDFGWSVHAPSNKRQTMCGTMDYLPPEMVNGADHSDAVDLWAIGVLCYEFLVGKPPFEHEDQSKTYAAIKAARFTYPDSVKKGARDLIGRLLVVDPKARCTLEQVKEHYWIQGMMEAKIRAEKQQKIEKEASLRNH
B2: GST-CDC-48.3 N (amino acids 1-225) (domain or fragment, C. elegans, UniProt Q21222 1-225, looked up)
chain: MSSAKKKPSLVTCPQCNAVVLTKDSLRHQDFCGKPVVESEIACAQNGTLRGFNVAVDKAEGFLPPDAVGWEKEHSILINQQTMESLGLLARQPVRIIHSSDSFIGIVWPCKEVALLKVSIISSRIARERMITLESCGRVEKLKSLSVTVKTSLTLNPALSGFLEAYLSHSYLQYNSSVDLKYLGQNVTVTPEEPIESKMSAMGIDDDKKRNSKVVSTAVGYKIQI

Assay in all cases: pull-down
For assay [1], the target named is T1, GST-CDC-48.3 full-length (FL), amino ….
Assay [2] has as its target T2, GST-CDC-48.3 (N+D1), amino acids 1-441.
Assay [3] addresses T3, GST-CDC-48.3 (N+D1) K285T.
For assay [4], the target named is B1.

Regarding B1, the binding result in assay [1], in assay [2] and in assay [3] was “binds” throughout.

Turning to B2, in assay [4], the binding result is “binds”.
